Measurements reported in EP3199551.
Read-outs that look alike come from different tables or passages of the source.

B1: hu Mab8D5 (IgG4 S228P) (antibody, V domains shown)
VH: EVQLVESGGGLVQPGGSLRLSCAASGFTISSYDMHWVRQATGKGLEWVSVIGPAGDTYYPGSVKGRFTISRENAKNSLYLQMNSLRAGDTAVYYCAREGMAAHNYYGMDVWGQGTTVTVSS
VL: not shown
B2: hu Mab8D5 G1 (IgG1) (antibody, V domains shown)
VH: B1 VH
VL: not shown

Legend:
[1] = target: T1, human BTLA (human, UniProt Q7Z6A9); assay: SPR
[2] = target: T1, human BTLA; assay: SPR; remark: listed apart in the source
[3] = target: T1, human BTLA; assay: FACS, 4C

T1 sequence (Q7Z6A9 31-157): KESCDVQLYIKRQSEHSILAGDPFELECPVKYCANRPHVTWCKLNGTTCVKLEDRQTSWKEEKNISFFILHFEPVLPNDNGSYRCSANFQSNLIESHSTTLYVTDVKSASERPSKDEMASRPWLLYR

| Binder | Kd [1] | Kd [2] | EC50 [3] |
| --- | --- | --- | --- |
| B1 | 2.99 nM | 2.4 nM | ~12 nM |
| B2 | – | – | ~12 nM |
